Measurements as given in the supplement of paper PMC9233669.
Fewer inactive variants are shown than the library holds.

How the values were obtained:
[1] = tested on: biotinyl-Phe-oxazolone; assay: self-aminoacylation, catalytic enhancement (BFO) (fold over background); higher = more active; k-Seq, kA / k0A0; sequences stand for … in GGGAAUGGAUCCACAUCUACGAAUUC…UUCACUGCAGACUUGACGAAGCUG
Method in brief: (§1)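 Mutagenized RNA pools (0.43 μM; 21-nt variable region) were treated with 2–1250 μM of each biotinyl-aminoacyl-oxazolone. Conditions were 50 μL HEPES/NaCl/KCl/MgCl2/CaCl2 buffer, 5% acetonitrile, pH 6.9–7.0, room temperature, 90 minutes. Catalytic enhancement, the median kA relative to the uncatalyzed rate, was derived from streptavidin capture, qPCR and Illumina sequencing.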

[2] = tested on: biotinyl-Ile-oxazolone; assay: self-aminoacylation, catalytic enhancement (BIO) (fold over background); higher = more active; k-Seq, kA / k0A0; sequences stand for … in GGGAAUGGAUCCACAUCUACGAAUUC…UUCACUGCAGACUUGACGAAGCUG
Method in brief: as §1

[3] = tested on: biotinyl-Met-oxazolone; assay: self-aminoacylation, catalytic enhancement (BMO) (fold over background); higher = more active; k-Seq, kA / k0A0; sequences stand for … in GGGAAUGGAUCCACAUCUACGAAUUC…UUCACUGCAGACUUGACGAAGCUG
Method in brief: as §1

[4] = tested on: biotinyl-Val-oxazolone; assay: self-aminoacylation, catalytic enhancement (BVO) (fold over background); higher = more active; k-Seq, kA / k0A0; sequences stand for … in GGGAAUGGAUCCACAUCUACGAAUUC…UUCACUGCAGACUUGACGAAGCUG
Method in brief: as §1

[5] = tested on: biotinyl-Leu-oxazolone; assay: self-aminoacylation, catalytic enhancement (BLO) (fold over background); higher = more active; k-Seq, kA / k0A0; sequences stand for … in GGGAAUGGAUCCACAUCUACGAAUUC…UUCACUGCAGACUUGACGAAGCUG
Method in brief: as §1

[6] = tested on: biotinyl-Trp-oxazolone; assay: self-aminoacylation, catalytic enhancement (BWO) (fold over background); higher = more active; k-Seq, kA / k0A0; sequences stand for … in GGGAAUGGAUCCACAUCUACGAAUUC…UUCACUGCAGACUUGACGAAGCUG
Method in brief: as §1

Row | Sequence | self-aminoacylation [1] | self-aminoacylation [2] | self-aminoacylation [3] | self-aminoacylation [4] | self-aminoacylation [5] | self-aminoacylation [6]
1 | ACUACCCUGAUCAUCGAGUGA [Fam2.1 aminoacylation ribozyme variant] | 6.61 | 3.87 | 5.52 | 3.38 | 5.88 | 7.58
2 | CUAAACUUCAAGCAAUCGGUC [Fam1B.1 aminoacylation ribozyme variant] | 33.1 | 0.956 | 0.876 | 1.03 | 1.26 | 15.1
3 | CUACUUCCAACAAUCCGUCUG [Fam1A.1 aminoacylation ribozyme variant] | 0.668 | 0.794 | 0.771 | 0.886 | 0.999 | 0.524
4 | CUACUUCAAACAAUCCGUCAG [Fam1A.1 aminoacylation ribozyme variant] | 0.797 | 0.951 | 0.684 | 0.934 | 0.613 | 0.643
5 | CCAGACUUCAAGCAAUCGGUG [Fam1B.1 aminoacylation ribozyme variant] | 29.2 | 4.56 | 6.21 | 4.1 | 8.51 | 7.25
6 | CUGCUUGAAACAAUCGGUCUG [Fam1A.1 aminoacylation ribozyme variant] | 0.928 | 0.9 | 0.842 | 0.959 | 0.867 | 1.07
7 | AUUACCCUGGUCAUCGCCUGA [Fam2.1 aminoacylation ribozyme variant] | 14.2 | 2.72 | 2.48 | 3.15 | 3.64 | 3.69
8 | CUACUUCAAAGAAUCGGUUUG [Fam1A.1 aminoacylation ribozyme variant] | 5.29 | 0.892 | 0.933 | 0.785 | 0.845 | 4.68
9 | AUUCAACUAGGUCAUCGGGUA [Fam2.2 aminoacylation ribozyme variant] | 7.29 | 1.78 | 2.01 | 2.19 | 2.16 | 2.89
10 | AAGUUUGCUAAUAUUAGCAAG [Fam3.1 aminoacylation ribozyme variant] | 1.2 | 1.28 | 1.32 | 1.24 | 1.08 | 1.3
11 | AAGUUUGUUAAUAGUCGCAAU [Fam3.1 aminoacylation ribozyme variant] | 2.29 | 1.73 | 1.5 | 1.45 | 1.51 | 1.94
12 | CUACUUCAAACAACCGCUCUG [Fam1A.1 aminoacylation ribozyme variant] | 0.457 | 0.776 | 0.774 | 0.769 | 0.547 | 0.619
13 | AAGCUUGCGAAUAGUCGCAAG [Fam3.1 aminoacylation ribozyme variant] | 2.7 | 2.39 | 2.12 | 1.64 | 2.2 | 2.32
14 | AAGGUGGCUAAUAGUCGCAAG [Fam3.1 aminoacylation ribozyme variant] | 1.82 | 1.63 | 1.65 | 1.41 | 1.74 | 1.95
15 | AUUCACAUAGGUCAUCGGGCG [Fam2.2 aminoacylation ribozyme variant] | 6.68 | 2.05 | 2.5 | 2.33 | 3.11 | 2.3
16 | CUAAUUAAAACAAUCGGUCUG [Fam1A.1 aminoacylation ribozyme variant] | 0.555 | 0.791 | 0.827 | 0.738 | 0.782 | 0.564
17 | CCACACUUCACGCAAUCGGUU [Fam1B.1 aminoacylation ribozyme variant] | 0.906 | 1.76 | 2.01 | 1.92 | 1.95 | 1.45
18 | AUUUCCCCGGUCAUCGAGUGA [Fam2.1 aminoacylation ribozyme variant] | 32.5 | 3.34 | 5.69 | 3.65 | 5.8 | 8.04
19 | GUACUUCAAACAAUCGGUCUU [Fam1A.1 aminoacylation ribozyme variant] | 12.8 | 1.43 | 1.14 | 1.3 | 1.49 | 12
20 | CUAUUUCAAAAAAUCGGUCUG [Fam1A.1 aminoacylation ribozyme variant] | 2.31 | 1.13 | 1 | 0.85 | 1.18 | 1.73
21 | AUUGACAUAGGUCAUCGGGUG [Fam2.2 aminoacylation ribozyme variant] | 48.4 | 5.14 | 7.3 | 4.42 | 8.84 | 8.04
22 | GAGUUUGCUAAUAGUCGUAAG [Fam3.1 aminoacylation ribozyme variant] | 30.8 | 1.4 | 1.4 | 1.17 | 1.28 | 8.52
23 | CUACUUCAAACAUUCCGUCUG [Fam1A.1 aminoacylation ribozyme variant] | 0.631 | 1.15 | 0.79 | 1.2 | 1.19 | 1.22
24 | AUUCACCUAGUUCAGCGGGUG [Fam2.2 aminoacylation ribozyme variant] | 15.9 | 2.07 | 2.76 | 2.28 | 3.34 | 2.62
25 | AAUUAUGCUAAUAGUCGCAAG [Fam3.1 aminoacylation ribozyme variant] | 3.25 | 2.21 | 1.46 | 1.65 | 1.81 | 2.57
26 | AAGUUUGCUGAUACUCGCAAG [Fam3.1 aminoacylation ribozyme variant] | 0.915 | 1.11 | 0.744 | 0.897 | 0.885 | 1.07

Row | Sequence | self-aminoacylation [1] | self-aminoacylation [2] | self-aminoacylation [3] | self-aminoacylation [4] | self-aminoacylation [5] | self-aminoacylation [6]
27 | AUAACCCUGGUCAUCGAGUGA [Fam2.1 aminoacylation ribozyme variant] | 69.1 | 8.43 | 19.7 | 8.59 | 18.8 | 18.7
28 | UUGUUUGCUAAUAGUCGCAAG [Fam3.1 aminoacylation ribozyme variant] | 9.39 | 1.41 | 1.33 | 1.42 | 1.24 | 3.52
29 | CCACACAACAAGCAAUCGGUC [Fam1B.1 aminoacylation ribozyme variant] | 1.15 | 0.894 | 0.781 | 0.899 | 0.863 | 0.693
30 | UUUCACCUAGGUCAUGGGGUG [Fam2.2 aminoacylation ribozyme variant] | 29.1 | 3.19 | 3.8 | 2.96 | 4.07 | 4.25
31 | CCACACUUCGAGCAAUCGGCC [Fam1B.1 aminoacylation ribozyme variant] | 7.13 | 1.64 | 1.61 | 2.77 | 1.94 | 2.11
32 | AUUCACCUAGGUUCUCGGGUG [Fam2.2 aminoacylation ribozyme variant] | 20.4 | 2.63 | 2.88 | 2.68 | 3.18 | 2.44
33 | CCACACAUCAACCAAUCGGUC [Fam1B.1 aminoacylation ribozyme variant] | 1.2 | 0.785 | 0.622 | 0.745 | 0.487 | 1.26
34 | CUACUUCAAAAAAUCAGUCUG [Fam1A.1 aminoacylation ribozyme variant] | 5.75 | 0.841 | 0.744 | 0.754 | 0.804 | 2.61
35 | AUUACCCUGGUCACCGAGUGA [Fam2.1 aminoacylation ribozyme variant] | 51.3 | 3.9 | 8.44 | 4.25 | 9.26 | 9.22
36 | AUUCCCCUAGGUCACCGGGUG [Fam2.2 aminoacylation ribozyme variant] | 163 | 13.9 | 20.3 | 13.4 | 26.2 | 21.7
37 | AUUCACCUAGGUCAUCCCGUG [Fam2.2 aminoacylation ribozyme variant] | 26.7 | 3.32 | 4.13 | 3.25 | 4.87 | 5.25
38 | AUUACCCUGGUCUUAGAGUGA [Fam2.1 aminoacylation ribozyme variant] | 39.5 | 4.28 | 7.82 | 4.31 | 7.33 | 9.81
39 | CUUCACCUAGGUCUUCGGGUG [Fam2.2 aminoacylation ribozyme variant] | 34.1 | 4.13 | 6.17 | 5.98 | 6.81 | 6.37
40 | AUUACCCUGGUCAGCCAGUGA [Fam2.1 aminoacylation ribozyme variant] | 46.3 | 5.41 | 9.13 | 5.21 | 10.6 | 11
41 | CUACUUCAAACAAACGGUCUG [Fam1A.1 aminoacylation ribozyme variant] | 0.894 | 0.77 | 0.664 | 0.812 | 0.666 | 0.615
42 | CUCUUUCAAACAAUCGGUCUG [Fam1A.1 aminoacylation ribozyme variant] | 14.2 | 0.972 | 1.13 | 0.908 | 1.21 | 9.95
43 | CCACAGUUCAAGGAAUCGGUC [Fam1B.1 aminoacylation ribozyme variant] | 1.09 | 1.23 | 1.12 | 1.19 | 1.33 | 1.18
44 | UAGUUUGCUAAUAGUCGCCAG [Fam3.1 aminoacylation ribozyme variant] | 1.74 | 1.47 | 1.69 | 1.2 | 1.7 | 1.16
45 | CCACCUUUCAAGCAAUCGGUC [Fam1B.1 aminoacylation ribozyme variant] | 2.62 | 1.44 | 1.4 | 1.72 | 1.35 | 1.97
46 | CUAGUUCAAACAAUCGGCCUG [Fam1A.1 aminoacylation ribozyme variant] | 12.4 | 1.71 | 1.76 | 1.84 | 2.2 | 11.2
47 | AAGCUUGCUAAUAGUCGCGAG [Fam3.1 aminoacylation ribozyme variant] | 26.9 | 2.66 | 3.36 | 1.9 | 2.66 | 3.85
48 | AAUUACCUAGGUCAUCGGGUG [Fam2.2 aminoacylation ribozyme variant] | 38 | 4.3 | 6.04 | 4.24 | 6.53 | 7.49
49 | CCACACUUCGAGCAUUCGGUC [Fam1B.1 aminoacylation ribozyme variant] | 1.18 | 1.97 | 1.67 | 2.2 | 1.72 | 1.54
50 | AUUACCCUGGUGAUCGAGAGA [Fam2.1 aminoacylation ribozyme variant] | 0.65 | 1.33 | 1.24 | 0.92 | 0.908 | 0.417
51 | AUGUUUGCUAAUAGUCGCCAG [Fam3.1 aminoacylation ribozyme variant] | 1.53 | 1.26 | 1.37 | 1.29 | 1.51 | 1.76
